Molecular target: Neisseria gonorrhoeae MtrD inner membrane multidrug efflux pump (Neisseria gonorrhoeae) (UniProt Q51073)
Test: crystal structure; sitting-drop vapor diffusion at room temperature; 20 mg/ml MtrD in 20 mM Na-HEPES pH 7.5, 0.05% Cymal-6; reservoir 30% PEG 400, 0.1 M Na-Bicine pH 8.5, 0.1 M NH4Cl, 0.05 M BaCl2, 9% glycerol; space group R32, one protomer per asymmetric unit; 3.53 Å

Neisseria gonorrhoeae MtrD inner membrane multidrug efflux pump (from UniProt Q51073 1-1067) (natural protein)
stoichiometry N: 3
